From patent US20230002478A1 (published 2023)

B1: antibody 339-031 (Fc fusion)
chain: EVQLVESGGGLVQPGGSLRLSCAASGSTFSINAMGWFRQAPGKEREFVAGITSSGGYTNYADSVKGRFTISADNSKNTAYLQMNSLKPEDTAVYYCAADGVPEYSDYASGPVWGQGTLVTVSS
B2: antibody 202-03 (Fc fusion)
chain: EVQLVESGGGLVQPGGSLRLSCAASGFTFSPSWMGWFRQAPGKEREFVATINEYGGRNYADSVKGRFTISADNSKNTAYLQMNSLKPEDTAVYYCARVDRDFDYWGQGTLVTVSS

Experiments:
SARS-CoV-2 S1 = SARS-CoV-2 S1 (SARS-CoV-2, UniProt P0DTC2 16-685); assay: SPR
SARS-CoV-2 S Trimer = SARS-CoV-2 S Trimer (SARS-CoV-2, UniProt P0DTC2 16-1213); assay: SPR

| Binder | Kd (SARS-CoV-2 S1) | Kd (SARS-CoV-2 S Trimer) |
| --- | --- | --- |
| B1 | 6 pM | < 14 pM |
| B2 | 11 pM | 299 pM |
